Results as given in publication PMC5493658, “Post-secretional activation of Protease IV by quorum sensing in Pseudomonas aeruginosa” (Scientific Reports, 2017).

Molecular target: T1, P-PIV: His-tagged protease IV (PIV) purified from PAO-T7 (Pseudomonas aeruginosa, UniProt Q9HWK6 212-462)
T1 construct: Protease IV (PIV), lysyl-endopeptidase encoded by piv, Pseudomonas aeruginosa; 26 kDa mature PIV left after removal of the signal peptide and the propeptide (residues 1-211 of the 48 kDa prepro-PIV); because the N-terminus is processed twice during secretion it is probably C-terminal (surmise); also called His-tagged active PIV; mature PIV; source: P. aeruginosa PAO-T7 harboring pQF21c-PIV, …
T1 sequence: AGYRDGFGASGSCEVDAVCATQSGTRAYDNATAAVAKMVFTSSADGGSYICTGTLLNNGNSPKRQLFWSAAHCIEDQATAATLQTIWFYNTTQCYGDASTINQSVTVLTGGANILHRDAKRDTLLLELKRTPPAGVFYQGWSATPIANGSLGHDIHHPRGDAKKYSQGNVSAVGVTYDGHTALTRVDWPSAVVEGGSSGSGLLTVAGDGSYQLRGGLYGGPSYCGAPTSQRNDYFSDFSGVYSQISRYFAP
Assay: pull-down; 1 ug purified propeptide mixed with 1 ug His-tagged P-PIV in 25 ul, room temperature 10 min; loaded on Ni-NTA agarose column, washed twice with 5 mM imidazole, eluted with 200 mM imidazole; SDS-PAGE
Settings: both partners purified

B1: propeptide of PIV purified from E. coli (domain or fragment)
chain: APGASEMAGDVAVLQASPASTGHARFANPNAAISAAGIHFAAPPARRVARAAPLAPKPGTPLQVGVGLKTATPEIDLTTLEWIDTPDGRHTARFPISAAGAASLRAAIRLETHSGSLPDDVLLHFAGAGKEIFEASGKDLSVNRPYWSPVIEGDTLTVELVLPANLQPGDLRLSVPQVSYFADSLYK
notes: Propeptide of protease IV (PIV), Pseudomonas aeruginosa; expressed as residues 1-211 of prepro-PIV (signal peptide and propeptide); also called purified propeptide; PP; source: E. coli BL21 (DE3) harboring pET16b-pro, purified (Ni-NTA, Q sepharose, size exclusion chromatography); not shown: His tag, N-terminal, cleaved
binding result: binds
